# Assay results published in patent US20210380703A1 (RIGEL PHARMACEUTICALS, published 2021).
# How the values were obtained:
# [1] = biological target: T1, biotinylated goat anti-human kappa light chain; experiment: ELISA, positive control
# T1 construct: positive control of the ELISA
# Outline: (§1)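 ELISA measured binding of ACVR2A-specific monoclonal antibodies to human and mouse ACVR2A. Biotinylated goat anti-human kappa light chain served as positive control and human Fc as negative control.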
# [2] = biological target: T2, human ACVR2A (human, UniProt P27037 20-135, limits assumed); experiment: ELISA
# T2 construct: coated antigen of the initial ELISA; also called activin receptor, type II A
# Outline: as §1
# [3] = biological target: T3, mouse ACVR2A (mouse, UniProt P27038 20-135, limits assumed); experiment: ELISA
# T3 construct: coated antigen of the initial ELISA
# Outline: as §1
# Note: test concentration or dose not given here.
# T3 sequence (P27038 20-135 limits assumed): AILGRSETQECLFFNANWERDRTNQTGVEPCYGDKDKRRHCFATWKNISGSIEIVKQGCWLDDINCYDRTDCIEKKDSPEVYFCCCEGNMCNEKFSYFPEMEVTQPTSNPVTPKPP
# T2 sequence (P27037 20-135 limits assumed): as the sequence (P27038 20-135 limits assumed) above, with R20K, I73V counted along it
Binder,optical density [1],optical density [2],optical density [3]
"375_B12 (antibody, V domains shown, Group III) VH: EVQLLESGGGLVQPGGSLRLSCAASGFTFDSYSMNWVRQAPGKGLEWVAGINYNGGYKSYADSVKGRFTISRDNSKNTLYLQMNSLRAEDTAVYYCARGANWHDTALDYWGQGTLVTVSS VL: DIQMTQSPSSLSASVGDRVTITCRASQSIVTYLNWYQQKPGKAPKLLIYAATSRASGVPSRFSGSGSGTDFTLTISSLQPEDFATYYCQQSYDTPLTFGGGTKVEIK",3.28 OD,3.65 OD,3.34 OD
"375_D01 (antibody, V domains shown, Group III) VH: EVQLLESGGGLVQPGGSLRLSCAASGFTFSSYSMNWVRQAPGKGLEWVSGINYNGGYTGYADSVKGRFTISRDNSKNTLYLQMNSLRAEDTAVYYCARGANWHDTALDYWGQGTLVTVSS VL: DIQMTQSPSSLSASVGDRVTITCRASQSILTYLNWYQQKPGKAPKLVIYAATSRASGVPSRFSGSGSGTDFTLTISSLQPEDFATYYCQQSYETPLTFGGGTKVEIK",3.1 OD,3.3 OD,3.61 OD
"375_E05 (antibody, V domains shown, Group III) VH: EVQLLESGGGLVQPGGSLRLSCAASGFTFSSYSMNWVRQAPGKGLEWVAGINYNGGYTSYADSVKGRFTISRDNSKNTLYLQMNSLRAEDTAVYYCARGANWHDTALDYWGQGTLVTVSS VL: DIQMTQSPSSLSASVGDRVTITCRASQSILSYLNWYQQKPGKAPKLVIYAATSLASGVPSRFSGSGSGTDFTLTISSLQPEDFATYYCQQSYSSPLTFGGGTKVEIK",3.28 OD,3.67 OD,3.71 OD
"375_G05 (antibody, V domains shown, Group III) VH: EVQLLESGGGLVQPGGSLRLSCAASGFTFSSYSMNWVRQAPGKGLEWVAGINYNGGYTSYADSVKGRFTISRDNSKNTLYLQMNSLRAEDTAVYYCARGANWHDTALDYWGQGTLVTVSS VL: DIQMTQSPSSLSASVGDRVTITCRASQSIVSYLNWYQQKPGKAPKLLIYAVTSRASGVPSRFSGSGSGTDFTLTISSLQPEDFATYYCQQSYDSPLTFGGGTKVEIK",3.26 OD,3.71 OD,3.75 OD
"375_H07 (antibody, V domains shown, Group III) VH: EVQLLESGGGLVQPGGSLRLSCAASGFTFSSYSMNWVRQAPGKGLEWVAGINYNGGYTSYADSVKGRFTISRDNSKNTLYLQMNSLRAEDTAVYYCARGANWHDTALDYWGQGTLVTVSS VL: DIQMTQSPSSLSASVGDRVTITCRASQSILSYLNWYQQKPGKAPKLLIYAATSLASGVPSRFSGSGSGTDFTLTISSLQPEDFATYYCQQSYSSPLTFGGGTKVEIK",3.27 OD,3.3 OD,3.29 OD
"375_F02 (antibody, V domains shown, Group III) VH: EVQLLESGGGLVQPGGSLRLSCAASGFTFSSYSMNWVRQAPGKGLEWVASINYNSGYTSYADSVKGRFTISRDNSKNTLYLQMNSLRAEDTAVYYCARGANWHDTHLDYWGQGTLVTVSS VL: DIQMTQSPSSLSASVGDRVTITCRASQSILSYLNWYQQKPGKAPKLLIYAATSRASGVPSRFSGSGSGTDFTLTISSLQPEDFATYYCQQSYDSPLTFGGGTKVEIK",3.2 OD,3.6 OD,3.65 OD
"375_H05 (antibody, V domains shown, Group III) VH: EVQLLESGGGLVQPGGSLRLSCAASGFTFSSYSMNWVRQAPGKGLEWVSNINYNGGYTGYADSVKGRFTISRDNSKNTLYLQMNSLRAEDTAVYYCARGANWHDTALDYWGQGTLVTVSS VL: DIQMTQSPSSLSASVGDRVTITCRASQSILSYVNWYQQKPGKAPKLLIYAATSRASGVPSRFSGSGSGTDFTLTISSLQPEDFATYYCQQSYDTPLTFGGGTKVEIK",3.17 OD,3.35 OD,3.33 OD
"375_E06 (antibody, V domains shown, Group III) VH: EVQLLESGGGLVQPGGSLRLSCAASGFTFSSYSMNWVRQAPGKGLEWVSGINYNGGYKSYADSVKGRFTISRDNSKNTLYLQMNSLRAEDTAVYYCARGANWHDTALDYWGQGTLVTVSS VL: DIQMTQSPSSLSASVGDRVTITCRASQSILSYLNWYQQKPGKAPKLVIYAATSRASGVPSRFSGSGSGTDFTLTISSLQPEDFATYYCQQSYDSPLTFGGGTKVEIK",3.33 OD,3.85 OD,3.67 OD
"376_B03 (antibody, V domains shown, Group III) VH: EVQLLESGGGLVQPGGSLRLSCAASGFTFSSYSMNWVRQAPGKGLEWVAGINYNSGYKSYADSVKGRFTISRDNSKNTLYLQMNSLRAEDTAVYYCARGANWHDTALDYWGQGTLVTVSS VL: DIQMTQSPSSLSASVGDRVTITCRASQSILSYVNWYQQKPGKAPKLVIYAVTSRHSGVPSRFSGSGSGTDFTLTISSLQPEDFATYYCQQSYDSPLTFGGGTKVEIK",3.52 OD,3.68 OD,3.67 OD
"375_G04 (antibody, V domains shown, Group III) VH: EVQLLESGGGLVQPGGSLRLSCAASGFTFSSYGMNWVRQAPGKGLEWVASINYNSGYTGYADSVKGRFTISRDNSKNTLYLQMNSLRAEDTAVYYCARGANWHDTHLDYWGQGTLVTVSS VL: DIQMTQSPSSLSASVGDRVTITCRASQSIVSYVNWYQQKPGKAPKLLIYAATSLASGVPSRFSGSGSGTDFTLTISSLQPEDFATYYCQQSYDSPLTFGGGTKVEIK",3.19 OD,2.91 OD,3.29 OD
"376_B10 (antibody, V domains shown, Group III) VH: EVQLLESGGGLVQPGGSLRLSCAASGFTFSDYSMNWVRQAPGKGLEWVAGINYNGGYKGYADSVKGRFTISRDNSKNTLYLQMNSLRAEDTAVYYCARGANWHDTALDYWGQGTLVTVSS VL: DIQMTQSPSSLSASVGDRVTITCRASQSILSYLNWYQQKPGKAPKLVIYAATSLASGVPSRFSGSGSGTDFTLTISSLQPEDFATYYCQQSYSTPLTFGGGTKVEIK",3.46 OD,3.6 OD,3.67 OD
"375_F07 (antibody, V domains shown, Group III) VH: EVQLLESGGGLVQPGGSLRLSCAASGFTFSDYSMNWVRQAPGKGLEWVSNINYNGGYTGYADSVKGRFTISRDNSKNTLYLQMNSLRAEDTAVYYCARGANWHDTALDYWGQGTLVTVSS VL: DIQMTQSPSSLSASVGDRVTITCRASQSILSYLNWYQQKPGKAPKLLIYAATSRASGVPSRFSGSGSGTDFTLTISSLQPEDFATYYCQQSYDSPLTFGGGTKVEIK",3.22 OD,3.67 OD,3.71 OD
"375_E03 (antibody, V domains shown, Group III) VH: EVQLLESGGGLVQPGGSLRLSCAASGFTFSDYSMNWVRQAPGKGLEWVANINYNGGYTGYADSVKGRFTISRDNSKNTLYLQMNSLRAEDTAVYYCARGANWHDTHLDYWGQGTLVTVSS VL: DIQMTQSPSSLSASVGDRVTITCRASQSILTYLNWYQQKPGKAPKLVIYAATSLASGVPSRFSGSGSGTDFTLTISSLQPEDFATYYCQQSYDNPLTFGGGTKVEIK",3.18 OD,3.57 OD,3.64 OD
"375_E02 (antibody, V domains shown, Group III) VH: EVQLLESGGGLVQPGGSLRLSCAASGFTFSDYSMNWVRQAPGKGLEWVAGINYNGGYTSYADSVKGRFTISRDNSKNTLYLQMNSLRAEDTAVYYCARGANWHDTALDYWGQGTLVTVSS VL: DIQMTQSPSSLSASVGDRVTITCRASQSILTYLNWYQQKPGKAPKLLIYAATSRASGVPSRFSGSGSGTDFTLTISSLQPEDFATYYCQQSYSSPLTFGGGTKVEIK",3.2 OD,3.58 OD,3.69 OD
"376_C04 (antibody, V domains shown, Group III) VH: EVQLLESGGGLVQPGGSLRLSCAASGFTFSSYGMNWVRQAPGKGLEWVSNINYNGGYTGYADSVKGRFTISRDNSKNTLYLQMNSLRAEDTAVYYCARGANWHDTALDYWGQGTLVTVSS VL: DIQMTQSPSSLSASVGDRVTITCRASQSILSYVNWYQQKPGKAPKLLIYAVTSRHSGVPSRFSGSGSGTDFTLTISSLQPEDFATYYCQQSYDNPLTFGGGTKVEIK",3.4 OD,3.63 OD,3.65 OD
"375_F08 (antibody, V domains shown, Group III) VH: EVQLLESGGGLVQPGGSLRLSCAASGFTFSSYGMNWVRQAPGKGLEWVSSINYNSGYKSYADSVKGRFTISRDNSKNTLYLQMNSLRAEDTAVYYCARGANWHDTHLDYWGQGTLVTVSS VL: DIQMTQSPSSLSASVGDRVTITCRASQSILSYLNWYQQKPGKAPKLLIYAATSRHSGVPSRFSGSGSGTDFTLTISSLQPEDFATYYCQQSYDNPLTFGGGTKVEIK",3.31 OD,3.5 OD,3.58 OD
"375_C04 (antibody, V domains shown, Group III) VH: EVQLLESGGGLVQPGGSLRLSCAASGFTFSDYSMNWVRQAPGKGLEWVAGINYNGGYTSYADSVKGRFTISRDNSKNTLYLQMNSLRAEDTAVYYCARGANWHDTALDYWGQGTLVTVSS VL: DIQMTQSPSSLSASVGDRVTITCRASQSILTYLNWYQQKPGKAPKLVIYAATSRASGVPSRFSGSGSGTDFTLTISSLQPEDFATYYCQQSYESPLTFGGGTKVEIK",3.21 OD,3.68 OD,3.67 OD
"375_D10 (antibody, V domains shown, Group III) VH: EVQLLESGGGLVQPGGSLRLSCAASGFTFSSYSMNWVRQAPGKGLEWVAGINYNGGYTSYADSVKGRFTISRDNSKNTLYLQMNSLRAEDTAVYYCARGANWHDTALDYWGQGTLVTVSS VL: DIQMTQSPSSLSASVGDRVTITCRASQSILTYVNWYQQKPGKAPKLLIYAATSRASGVPSRFSGSGSGTDFTLTISSLQPEDFATYYCQQSDDSPLTFGGGTKVEIK",3.21 OD,3.26 OD,3.45 OD
"376_A03 (antibody, V domains shown, Group III) VH: EVQLLESGGGLVQPGGSLRLSCAASGFTFSSYGMNWVRQAPGKGLEWVAGINYNGGYTGYADSVKGRFTISRDNSKNTLYLQMNSLRAEDTAVYYCARGANWHDTALDYWGQGTLVTVSS VL: DIQMTQSPSSLSASVGDRVTITCRASQSILTYLNWYQQKPGKAPKLLIYAATSRASGVPSRFSGSGSGTDFTLTISSLQPEDFATYYCQQSYSTPLTFGGGTKVEIK",3.23 OD,3.61 OD,3.65 OD
